Source: article PMC11278340

T1: murine CCL22 (Mus musculus, UniProt O88430 25-92)
T1 sequence: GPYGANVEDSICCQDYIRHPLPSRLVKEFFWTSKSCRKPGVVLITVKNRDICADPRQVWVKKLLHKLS

T2: human CCL22 (Homo sapiens, UniProt O00626 25-93)
T2 sequence: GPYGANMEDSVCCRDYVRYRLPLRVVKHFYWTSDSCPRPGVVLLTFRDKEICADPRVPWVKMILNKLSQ

T3: murine CCL17 (Mus musculus, UniProt Q9WUZ6 24-93)
T3 sequence: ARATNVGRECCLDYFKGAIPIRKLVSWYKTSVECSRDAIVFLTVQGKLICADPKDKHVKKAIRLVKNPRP

B1: AJ102 (ssDNA)
DNA: GCTGTGTGACTCCTGCAATAGGCGAGTGTGGGTGGGTGGGCGTTCTCAGTGGTTCTCAGTAGCAGCTGTATCTTGTCTCC
B2: AJ82 (ssDNA)
DNA: GCTGTGTGACTCCTGCAAGCTGTGGAGTCGTCGTTCGGGTTATGGGGGATGGGGTTGAGTGGCAGCTGTATCTTGTCTCC

Key:
[1] = molecular target: T1, murine CCL22; experiment: flow cytometry on CCL22 beads
[2] = molecular target: T2, human CCL22; experiment: ELONA
[3] = molecular target: human CCL17 (Homo sapiens, UniProt Q92583 24-94); experiment: ELONA
[4] = molecular target: T3, murine CCL17; experiment: ELONA
[5] = molecular target: T1, murine CCL22; experiment: SPR

Sequence of human CCL17 (Q92583 24-94): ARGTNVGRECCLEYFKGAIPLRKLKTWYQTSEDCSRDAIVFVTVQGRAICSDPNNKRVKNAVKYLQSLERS

Row | Binder | Kd [1] | binding result [2] | binding result [3] | binding result [4] | Kd [5]
1 | TAGGCGAGTGTGGGTGGGTGGGCGTTCTC (ssDNA) [AJ102.29] | 0.0636 µM | – | – | – | –
2 | B1 | 0.147 µM | no binding | no binding | no binding | 0.0107 µM
3 | B2 | 0.146 µM | no binding | no binding | no binding | 0.0248 µM
